Assay results as given in patent US20190119347A1 (HANMI PHARM, published 2019).
Bridge positions count the residues as written; N and C are the ends. Square brackets hold non-standard residues; d marks the D form. Ends that are not written are not given here. Aib = CC(C)(N)C(=O)O

Target: human glucagon receptor (human, UniProt P47871 26-477)
Assay: cell-based or functional assay

Sequence of human glucagon receptor (P47871 26-477): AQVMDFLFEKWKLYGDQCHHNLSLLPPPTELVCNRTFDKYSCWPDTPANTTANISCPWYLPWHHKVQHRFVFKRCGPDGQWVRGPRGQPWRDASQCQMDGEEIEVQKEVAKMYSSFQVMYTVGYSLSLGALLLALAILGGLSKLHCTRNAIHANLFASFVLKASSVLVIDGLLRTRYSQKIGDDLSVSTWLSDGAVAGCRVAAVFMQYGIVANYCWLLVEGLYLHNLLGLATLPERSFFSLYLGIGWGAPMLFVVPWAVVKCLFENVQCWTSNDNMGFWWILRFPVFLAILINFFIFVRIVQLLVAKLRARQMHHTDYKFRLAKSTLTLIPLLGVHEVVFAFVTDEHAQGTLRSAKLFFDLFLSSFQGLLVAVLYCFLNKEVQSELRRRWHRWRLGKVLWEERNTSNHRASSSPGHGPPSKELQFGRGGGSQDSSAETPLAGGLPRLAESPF

In vitro Activity (Relative Activity to SEQ ID NO: 1, %); cAMP assay, from EC50: 776%
B1: glucagon derivative of SEQ ID NO: 37 (peptide)
peptide: Y[Aib]QGTFTSDYSKYLDERRAKEFVQWLMNTC
modifications: lactam 16-20
